The subject of one experiment is Notch receptor. In words: Notch receptor cleavage (activation) in NSC cultures. The format is cell-based, mouse. Particulars: effect of inhibitor; DAPT 1 μM. The protocol:
(§1) Cell culture: E13.5 cortical embryonic mouse CNS stem cells were grown as previously described (Johe, et al., Genes Dev 10, 3129-40, 1996). Cells were expanded in serum-free DMEM/F12 medium with N2 supplement and FGF2 (20 ng/ml) for 5 days under 5% oxygen conditions and were re-plated fresh or from frozen stocks at 1,000-10,000 cells per cm^2. FGF2 was included throughout the studies, unless otherwise stated. Adult rat (3-6 months old) or adult mouse (2-4 months old) SVZ NSC cultures were grown in the same medium as the fetal cultures.
(§2) Pharmacological treatments: Unless otherwise stated, the following concentrations were used: Dll4 and Ang-2 (in vitro, 500 ng/ml; in vivo 12.5 μg as a single injection), FGF2 (in vitro, 20 ng/ml), JAK inhibitor (in vitro, 200 nM; in vivo, 250 ng as a single injection), insulin (in vitro, 25 μg/ml; in vivo, 40 μg as a single injection), DAPT (1 μM), Fluorogold (0.5 μg). For the survival assays, compounds were added daily and Notch ligands every 2 days for the duration of the experiment. For the effects of kinase inhibitors on Notch activation, cells were pre-incubated for 1 h prior to Notch activation.
It was previously shown that in NSCs Notch activation leads to rapid phosphorylation of Akt (Androutsellis-Theotokis, A. et al., Nature 442, 823-6, 2006), a mediator of insulin signalling (Cantley, Science 296, 1655-7, 2002). […] Activation of the Notch receptor by addition of insulin or Dll4 was inhibited by DAPT, a γ-secretase inhibitor that blocks Notch cleavage. […] Insulin maintained STAT3-Ser727 phosphorylation levels, and acutely (1-h) induced it following a 16-h insulin withdrawal phase (FIG. 1c).

A further experiment has as its system insulin/IGF-1 receptors. In words: Insulin/IGF-1 receptor activation in NSC cultures. The format is cell-based, mouse. Particulars: effect of inhibitor; DAPT 1 μM. As to the method: as §1, §2
It was previously shown that in NSCs Notch activation leads to rapid phosphorylation of Akt (Androutsellis-Theotokis, A. et al., Nature 442, 823-6, 2006), a mediator of insulin signalling (Cantley, Science 296, 1655-7, 2002). […]

The test system of another experiment is Hes3. In words: Hes3 protein immuno-staining in fetal NSC cultures. In kind it is cell-based, mouse. Particulars: 2 day treatment. As to the method: as §1
Hes3 mRNA is present in fetal NSC cultures under conditions that support their self-renewal but CNTF-induced differentiation (Bonni, A. et al., Science 278, 477-83, 1997; Rajan & McKay, J Neurosci 18, 3620-9, 1998): downregulates Hes3 message (Androutsellis-Theotokis, A. et al., Nature 442, 823-6, 2006). Knockout studies have shown a role of Hes3 in self-renewal (Hatakeyama, J. et al., Development 131, 5539-50, 2004). It was investigated if Hes3 mediates stem cell functions in vitro to assess its use as a functional NSC marker. Fetal (E13.5) cortical tissue was dissociated and magnetic sorting was used to isolate a cell population that expressed AC133, an established marker of NSCs (Uchida, N. et al., Proc Natl Acad Sci USA 97, 14720-5, 2000). […]

Another experiment deals with Ang-1. In words: Ang-1 expression in fetal NSC cultures. The format is cell-based, mouse. The note with it: fetal NSCs in culture, treatment 2 days. As to the method:
as §1
(§3) Fetal NSCs in culture express Ang-1, and treatment (2 days) with Dll4 maintained it whereas CNTF reduced it. Ang-2 expression was maintained under these conditions. […] Ang-2 induced mTOR and STAT3-S727 phosphorylation, unlike Ang-1 (FIG. 2a). Ang-1, however, induced Akt phosphorylation.

Another experiment concerns NSC cultures. In words: Incidence of Tie-2 spikes in NSC cultures. In kind it is cell-based. The note with it: for % of cells with at least one spike: NSC cultures; for spike number: thirty minutes after treatment. As to the method: A protrusion of the cell membrane was identified in neuronal stem cells (NSCs) when the Tie-2 receptor is concentrated. This can be visualized using antibodies that bind Tie-2. The protrusion was termed a spike. These spikes appear 30 minutes after treatment with pharmaceutical agents. […] increase spike number thirty minutes after treatment. […] Thus, a novel sub-cellular structure ahs been identified. These structures could regulate the responsiveness of cells to treatments.
Thus, a novel protrusion of the cell membrane in NSCs has been identified where the Tie-2 receptor is concentrated. This can be easily visualized using an antibody against Tie-2 that recognizes a particular epitope. […] Indeed, the spike is devoid of actin filaments or tubulin. The spikes can be detected within thirty minutes of contacting the cultures with an the factors. Thus, the spikes provide a rapid assay for the effect of pharmacologic agents.

The subject of the next experiment is mTOR. In words: mTOR phosphorylation in NSC cultures (Western blot). In kind it is cell-based, mouse. The note with it: NSC cultures, 0.5 μg/ml (FIG. 2a, Example 3). The protocol: as §1, §3
Three characterized Tie-2 receptor antibodies were used to determine if the Tie-2 receptor was expressed in the immature neural precursor cells found in the SVZ of the adult brain. When ligand is bound, the Tie-2 receptor becomes phosphorylated. An antibody that recognizes the activated receptor (RnD Systems, AF2720) and another antibody that binds to a distinct site (Santa Cruz, sc-324) identified many positive cells in the subventricular zone of the adult rat brain. In regions that were more distant from the ventricle, Tie-2 was expressed predominantly on blood vessels and endothelial cells reacted with antibodies against the activated receptor. Precursor cells that proliferate in vitro can be readily derived from the fetal and adult brain. The homogeneity of these cell populations in attached culture and their potential to generate neurons and glia is supported by clonal analysis. […] This colony number assay measured the survival of precursor cells that could differentiate into neurons and glia (See, Table 1).
(In general: In western blotting, separated proteins are transferred to a membrane and probed.)

A further experiment has as its system Akt. In words: Akt phosphorylation in NSC cultures. The format is cell-based, mouse. Particulars: 0.5 μg/ml (FIG. 2a). The protocol: as §1, §3

`C[C@H](NC(=O)Cc1cc(F)cc(F)c1)C(=O)N[C@H](C(=O)OC(C)(C)C)c1ccccc1` [DAPT, reference compound]: in the experiment with Notch receptor, the “Activation of the Notch receptor by addition of insulin or Dll4” value is reported as “inhibited”. In the experiment on insulin/IGF-1 receptors, the “Activation of the insulin/IGF-1 receptors by insulin treatment” value is recorded as “partly blocked”.

B1: CNTF: CNTF (577-NT) from R&D; induces differentiation of NSCs (protein, UniProt P26441 1-200, looked up)
Ciliary neurotrophic factor: MAFTEHSPLTPHRRDLCSRSIWLARKIRSDLTALTESYVKHQGLNKNINLDSADGMPVASTDQWSELTEAERLQENLQAYRTFHVLLARLLEDQQVHFTPTEGDFHQAIHTLLLQVAAFAYQIEELMILLEYKIPRNEADGMPINVGDGGLFEKKLWGLKVLQELSQWTVRSIHDLRFISSHQTGIPARGSHYIANNKKM
As for B1, the Hes3 protein expression entry with Hes3 is on record as “lost”. The Ang-1 expression result with Ang-1 was “reduced”. Besides, in the experiment on NSC cultures, the “% of cells with at least one spike” value is given as 0.8% and the spike number entry is “do not increase”.

B2: Ang-1: human angiopoietin-1 (923-AN) from R&D (protein, UniProt Q15389 16-498, looked up)
Angiopoietin-1: HIGCSNQRRSPENSGRRYNRIQHGQCAYTFILPEHDGNCRESTTDQYNTNALQRDAPHVEPDFSSQKLQHLEHVMENYTQWLQKLENYIVENMKSEMAQIQQNAVQNHTATMLEIGTSLLSQTAEQTRKLTDVETQVLNQTSRLEIQLLENSLSTYKLEKQLLQQTNEILKIHEKNSLLEHKILEMEGKHKEELDTLKEEKENLQGLVTRQTYIIQELEKQLNRATTNNSVLQKQQLELMDTVHNLVNLCTKEGVLLKGGKREEEKPFRDCADVYQAGFNKSGIYTIYINNMPEPKKVFCNMDVNGGGWTVIQHREDGSLDFQRGWKEYKMGFGNPSGEYWLGNEFIFAITSQRQYMLRIELMDWEGNRAYSQYDRFHIGNEKQNYRLYLKGHTGTAGKQSSLILHGADFSTKDADNDNCMCKCALMLTGGWWFDACGPSNLNGMFYTAGQNHGKLNGIKWHYFKGPSYSLRSTTMMIRPLDF
As to B2, in the experiment with mTOR, the mTOR phosphorylation result is “inhibits”. For the same molecule, in the experiment on Akt, the Akt phosphorylation result was “induced”. Further, in the experiment with NSC cultures, the “% of cells with at least one spike” value stood at 0.8% and the spike number result is reported as “do not increase”.

(Values after US20110105393A1, “METHODS FOR PROMOTING STEM CELL PROLIFERATION AND SURVIVAL” (priority 2007, published 2011).)
